Test results reported in patent US20220275101A1, “Use of Approved Anti-CD38 Antibody Drug Product to Treat Light Chain Amyloidosis” (Janssen Biotech, Inc., priority 2021, published 2022).
Marks after values point to notes of the source that are not given here.

What was measured:
[1] = Daratumumab pharmacokinetics in patients with multiple myeloma; type: in vivo, human
[2] = Daratumumab pharmacokinetics in patients with light chain (AL) amyloidosis; type: in vivo, human
[3] = biological target: T1, CD38 on red blood cells (RBCs) (Homo sapiens, UniProt P28907); experiment: Interference with Indirect Antiglobulin Test (Indirect Coombs test)
T1 construct: endogenous in cells; host or cells: red blood cells (reagent RBCs used in blood-bank compatibility testing)
Text: Daratumumab binds to CD38 on red blood cells (RBCs) and results in a positive Indirect Antiglobulin Test (Indirect Coombs test). Daratumumab-mediated positive indirect antiglobulin test may persist for up to 6 months after the last daratumumab administration. Daratumumab bound to RBCs masks detection of antibodies to minor antigens in the patient's serum [see References (15)]. The determination of a patient's ABO and Rh blood type are not impacted [see Drug Interactions (7.1)].
Daratumumab binds to CD38 on RBCs and interferes with compatibility testing, including antibody screening and cross matching. Daratumumab interference mitigation methods include treating reagent RBCs with dithiothreitol (DTT) to disrupt daratumumab binding [see References (15)] or genotyping. Since the Kell blood group system is also sensitive to DTT treatment, supply K-negative units after ruling out or identifying alloantibodies using DTT-treated RBCs.

[4] = Daratumumab pharmacokinetics after DARZALEX FASPRO, population not specified or pooled; type: in vivo, human; details: DARZALEX FASPRO as monotherapy or combination therapy
[5] = system: relapsed or refractory multiple myeloma; experiment: COLUMBA monotherapy, efficacy; type: in vivo, human
Text: The major efficacy outcome measures were ORR by the IMWG response criteria and maximum Ctrough at pre-dose Cycle 3 Day 1 [see Clinical Pharmacology (12.3)]. Randomization was stratified by body weight, myeloma type, and number of prior lines of therapy.

[6] = COLUMBA monotherapy, safety (relapsed/refractory multiple myeloma)
Procedure: FASPRO 1,800 mg/30,000 units administered subcutaneously or daratumumab 16 mg/kg administered intravenously; each administered once weekly from weeks 1 to 8, once every 2 weeks from weeks 9 to 24 and once every 4 weeks starting with week 25 until disease progression or unacceptable toxicity.

[7] = Hyaluronidase developmental toxicity in mice; type: in vivo
Text: There were no effects on pre- and post-natal development through sexual maturity in offspring of mice treated daily from implantation through lactation with 990,000 U/kg hyaluronidase subcutaneously, which is 134 times higher than the human doses.

[8] = Hyaluronidase subcutaneous exposure and toxicity in monkeys; type: in vivo
Procedure: No carcinogenicity, genotoxicity, or fertility studies were conducted for recombinant human hyaluronidase. […] As hyaluronidase is a recombinant form of the endogenous human hyaluronidase, no carcinogenicity, mutagenesis, or effects on fertility are expected.

[9] = Hyaluronidase effect on permeability of the subcutaneous tissue
Text: Hyaluronan is a polysaccharide found in the extracellular matrix of the subcutaneous tissue. It is depolymerized by the naturally occurring enzyme hyaluronidase. Unlike the stable structural components of the interstitial matrix, hyaluronan has a half-life of approximately 0.5 days. Hyaluronidase increases permeability of the subcutaneous tissue by depolymerizing hyaluronan. In the doses administered, hyaluronidase in DARZALEX FASPRO acts locally. The effects of hyaluronidase are reversible and permeability of the subcutaneous tissue is restored within 24 to 48 hours.

[10] = monkeys, 22,000 U/kg/week subcutaneously for 39 weeks

With “Daratumumab: IgG1κ human monoclonal antibody that binds CD38; heavy chain SEQ ID NO: 12, light chain SEQ ID NO: 13” the “estimated mean volume of distribution, peripheral compartment” value ([1]; multiple myeloma) was 3.8 L, the “estimated mean (CV %) elimination half-life associated with linear clearance” value ([1]; multiple myeloma, CV 22%) was 20 days and the “estimated mean (CV) volume of distribution for the central compartment” value ([1]; multiple myeloma, CV 37%) was 5.2 L. The “estimated mean (CV %) linear clearance” value ([1]; multiple myeloma, CV 59%) was 119 mL/day, the “estimated mean volume of distribution” value ([2]; CV 28%) was 10.8 L and the “estimated mean (CV %) linear clearance” value ([2]; CV 42%) was 210 mL/day. For the same molecule, the “estimated mean (CV %) elimination half-life associated with linear clearance” value ([2]; CV 74%) was 28 days, the “persistence of positive indirect antiglobulin test after the last administration” value [3] was “up to 6 months” and the “Indirect Antiglobulin Test (Indirect Coombs test) result” value ([3]; binding to CD38 on RBCs) was “positive”. The “effect of sex, age (33 to 92 years), renal impairment (CLcr 15 to 89 mL/min) and mild hepatic impairment on pharmacokinetics” value [4] was “no clinically meaningful effect”.

For “Intravenous Daratumumab: daratumumab 16 mg/kg administered intravenously, comparator arm in COLUMBA”, the “Observed mean ± SD max Ctrough after 8th dose” value ([1]; patients with multiple myeloma) was 522 ± 226^a, b μg/mL, the “CR or better, %” value [5] was 2.7% and the Median progression-free survival [5] was 6.1 months. The “Partial response (PR), %” value [5] was 20%, the “Very good partial response (VGPR), %” value [5] was 14% and the “Overall response (sCR + CR + VGPR + PR), %” value ([5]; intent-to-treat population) was 37%. The “Back pain, All Grades” value ([6]; monotherapy) was 12%, the “Back pain, Grade ≥ 3” value ([6]; monotherapy) was 3^# % and the “Chills, All Grades” value ([6]; monotherapy) was 12%. The “Chills, Grade ≥ 3” value ([6]; monotherapy) was 1^# %, the “Cough, All Grades” value ([6]; monotherapy) was 14% and the “Cough, Grade ≥ 3” value ([6]; monotherapy) was 0^ %. For the same molecule, the “Diarrhea, All Grades” value ([6]; monotherapy) was 11%, the “Diarrhea, Grade ≥ 3” value ([6]; monotherapy) was 0.4^# % and the “Dyspnea, All Grades” value ([6]; monotherapy) was 11%. For the same molecule, the “Dyspnea, Grade ≥ 3” value ([6]; monotherapy) was 1^# %, the “Fatigue, All Grades” value ([6]; monotherapy) was 16% and the “Fatigue, Grade ≥ 3” value ([6]; monotherapy) was 2^# %. For the same molecule, the “Infusion reactions, All Grades” value ([6]; monotherapy) was 34%, the “Infusion reactions, Grade ≥ 3” value ([6]; monotherapy) was 5^# % and the “Nausea, All Grades” value ([6]; monotherapy) was 11%. The “Nausea, Grade ≥ 3” value ([6]; monotherapy) was 0.4^# %, the “Pneumonia, All Grades” value ([6]; monotherapy) was 10% and the “Pneumonia, Grade ≥ 3” value ([6]; monotherapy) was 6^@ %. For the same molecule, the “Pyrexia, All Grades” value ([6]; monotherapy) was 13%, the “Pyrexia, Grade ≥ 3” value ([6]; monotherapy) was 1^# % and the “Upper respiratory tract infection, All Grades” value ([6]; monotherapy) was 22%. The “Upper respiratory tract infection, Grade ≥ 3” value ([6]; monotherapy) was 1^# %, the “Decreased hemoglobin, All Grades” value ([6]; worsening from baseline) was 39% and the “Decreased hemoglobin, Grades 3-4” value ([6]; worsening from baseline) was 16%. The “Decreased leukocytes, All Grades” value ([6]; worsening from baseline) was 57%, the “Decreased leukocytes, Grades 3-4” value ([6]; worsening from baseline) was 14% and the “Decreased lymphocytes, All Grades” value ([6]; worsening from baseline) was 56%. For the same molecule, the “Decreased lymphocytes, Grades 3-4” value ([6]; worsening from baseline) was 36%, the “Decreased neutrophils, All Grades” value ([6]; worsening from baseline) was 43% and the “Decreased neutrophils, Grades 3-4” value ([6]; worsening from baseline) was 11%. The “Decreased platelets, All Grades” value ([6]; worsening from baseline) was 45% and the “Decreased platelets, Grades 3-4” value ([6]; worsening from baseline) was 14%.

B1: hyaluronidase: recombinant human hyaluronidase rHuPH20, SEQ ID NO: 22, residues 36-482 of wild type human hyaluronidase (protein, listed as Homo sapiens)
chain: LNFRAPPVIPNVPFLWAWNAPSEFCLGKFDEPLDMSLFSFIGSPRINATGQGVTIFYVDRLGYYPYIDSITGVTVNGGIPQKISLQDHLDKAKKDITFYMPVDNLGMAVIDWEEWRPTWARNWKPKDVYKNRSIELVQQQNVQLSLTEATEKAKQEFEKAGKDFLVETIKLGKLLRPNHLWGYYLFPDCYNHHYKKPGYNGSCFNVEIKRNDDLSWLWNESTALYPSIYLNTQQSPVAATLYVRNRVREAIRVSKIPDAKSPLPVFAYTRIVFTDQVLKFLSQDELVYTFGETVALGASGIVIWGTLSIMRSMKSCLLLDNYMETILNPYIINVTLAAKMCSQVLCQEQGVCIRKNWNSSDYLHLNPDNFAIQLEKGGKFTVRGKPTLEDLEQFSEKFYCSCYSTLSCKEKADVKDTDAVDVCIADGVCIDAFLKPPMETEEPQIFY
In the case of B1, the “effects on post-natal development through sexual maturity in offspring” value ([7]; mice treated daily during lactation, 990,000 U/kg subcutaneously) is reported as “no effects”, the “effects on pre- and post-natal development through sexual maturity in offspring” value ([7]; mice treated daily from implantation through lactation, 990,000 U/kg subcutaneously) is reported as “no effects” and the “effects on embryo-fetal development” value ([7]; pregnant mice, 330,000 U/kg subcutaneously daily during organogenesis) is reported as “no effects”. The “systemic exposure of hyaluronidase” value ([8]; monkeys, 22,000 U/kg subcutaneously (12 times the human dose)) was “No systemic exposure of hyaluronidase was detected”, the “effects on reproductive tissues and function” value [8, 10] was “no effects” and the “systemic exposure of hyaluronidase” value [8, 10] was “no systemic exposure”. For the same molecule, the “time until permeability of the subcutaneous tissue is restored” value [9] was 24 to 48 h.
